Consider one substance from publication doi:10.1101/2025.09.30.679617.

Usually Kd stands for the concentration at which binding is half-saturated. Low values mean a tighter complex, high ones a looser complex.

The assay has as its target PfCSP junctional peptide 21 (Plasmodium falciparum) (UniProt Q7K740). Nature of the assay: BLI. On the technique in general: Biolayer interferometry detects binding as a change in optical thickness at a sensor tip.

CIS43 mAb: the Kd worked out at 0.021 µM.
